In patent US20100260765A1 (AstraZeneca / MedImmune, published 2010):
Positions count from the first letter of the chain named.

B1: 29D4 (antibody, V domains shown)
VH: QLQLQESGPGLVKPSETLSLTCTVSGGSISSRSNYWGWIRQPPGKGLEWIGTIYYSGHTYYNPSLKSRVSISVDTSKNQFSLKLSSVTATDTALYYCARQQLVLYYFEYWGQGTLVTVSS
VL: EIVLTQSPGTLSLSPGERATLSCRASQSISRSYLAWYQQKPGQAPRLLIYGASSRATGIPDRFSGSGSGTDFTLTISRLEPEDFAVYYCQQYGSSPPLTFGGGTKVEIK
notes: Fully human monoclonal antibody from a XenoMouse hybridoma (IgG2 or IgG4 strain), purified
B2: 32F4 (antibody, V domains shown)
VH: B1 VH with E16G, T21S, N34D, H58N, Y60F, S70T, N78K, T90A, L94V, E108D
VL: EIVLTQSPGTLSLSPGERATLSCRTSQSVSSSYLAWYQQKPGQAPRLLIYGASSRATGVPDRFSGSGSGTDFSLTISRLEPEDFAVYYCQQYGSSPPLTFGGGTKVEIK
notes: as for B1
B3: 33B1 (antibody, V domains shown)
VH: EVQLVESGGGLVKPGGSLRLSCAASGFTFSSYTMNWVRQAPGKGLEWVSFIDSRSSYIYYADSVKGRFTISRDNAKNSLYLQMNSLRAEDTAVYYCSKDDWFEELWGQGTLVTVSS
VL: DIQMTQSPSSLSASVGDRVTITCRASQGIRNDLGWYQQKPGKAPKRLIYATSSLQSGVPSRFSGSGSGTEFTLTISSLQPEDFATYYCLHHNSFPWTFGQGTKVEIK
notes: as for B1

Tests used:
[1] = molecular target: T1, human KDR (human, UniProt P35968 20-1356); assay: cell-based or functional assay
T1 sequence (P35968 20-1356): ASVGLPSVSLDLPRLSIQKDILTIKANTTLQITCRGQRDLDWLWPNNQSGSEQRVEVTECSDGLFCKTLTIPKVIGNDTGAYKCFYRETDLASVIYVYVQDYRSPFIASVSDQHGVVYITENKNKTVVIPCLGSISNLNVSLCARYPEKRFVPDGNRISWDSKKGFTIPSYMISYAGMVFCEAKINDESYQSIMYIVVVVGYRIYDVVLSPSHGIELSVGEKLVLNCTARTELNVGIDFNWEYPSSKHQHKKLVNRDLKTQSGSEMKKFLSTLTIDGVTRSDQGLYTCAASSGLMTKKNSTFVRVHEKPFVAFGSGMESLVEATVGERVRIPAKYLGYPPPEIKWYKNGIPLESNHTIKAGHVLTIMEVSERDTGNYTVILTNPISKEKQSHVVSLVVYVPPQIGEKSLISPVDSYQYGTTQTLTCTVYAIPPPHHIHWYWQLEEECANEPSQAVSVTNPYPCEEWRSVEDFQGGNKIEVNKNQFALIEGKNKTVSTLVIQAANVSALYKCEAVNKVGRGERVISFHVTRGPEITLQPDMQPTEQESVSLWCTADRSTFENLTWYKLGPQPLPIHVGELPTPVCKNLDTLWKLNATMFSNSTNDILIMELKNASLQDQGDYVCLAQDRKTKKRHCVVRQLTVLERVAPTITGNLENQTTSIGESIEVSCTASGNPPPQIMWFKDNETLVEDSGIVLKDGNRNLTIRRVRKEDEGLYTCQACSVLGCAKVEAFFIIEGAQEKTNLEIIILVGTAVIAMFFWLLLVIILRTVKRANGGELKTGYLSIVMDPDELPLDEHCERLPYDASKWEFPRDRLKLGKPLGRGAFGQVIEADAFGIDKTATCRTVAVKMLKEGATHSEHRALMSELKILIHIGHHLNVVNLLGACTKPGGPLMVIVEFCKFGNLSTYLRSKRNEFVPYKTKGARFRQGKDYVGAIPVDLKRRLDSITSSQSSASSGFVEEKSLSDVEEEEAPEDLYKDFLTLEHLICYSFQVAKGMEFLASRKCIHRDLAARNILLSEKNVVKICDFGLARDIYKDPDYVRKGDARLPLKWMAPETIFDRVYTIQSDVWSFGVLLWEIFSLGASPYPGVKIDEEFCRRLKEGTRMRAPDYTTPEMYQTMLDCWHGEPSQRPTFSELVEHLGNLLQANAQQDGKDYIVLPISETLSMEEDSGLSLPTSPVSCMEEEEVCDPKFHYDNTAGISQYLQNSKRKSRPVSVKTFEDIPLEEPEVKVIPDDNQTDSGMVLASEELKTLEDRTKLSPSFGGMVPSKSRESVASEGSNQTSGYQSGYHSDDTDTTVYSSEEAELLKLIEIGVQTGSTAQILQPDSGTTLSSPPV

[2] = molecular target: T2, whole KDR-ECD (Cat. # 676490, Calbiochem) (human, UniProt P35968 20-764); assay: ELISA, KDR-ECD coat 5 ug/mL, antibody 0.1 ug/mL
T2 construct: extracellular domain; Bought soluble protein; also called soluble KDR; VEGF Receptor 2 D1-7
T2 sequence (P35968 20-764): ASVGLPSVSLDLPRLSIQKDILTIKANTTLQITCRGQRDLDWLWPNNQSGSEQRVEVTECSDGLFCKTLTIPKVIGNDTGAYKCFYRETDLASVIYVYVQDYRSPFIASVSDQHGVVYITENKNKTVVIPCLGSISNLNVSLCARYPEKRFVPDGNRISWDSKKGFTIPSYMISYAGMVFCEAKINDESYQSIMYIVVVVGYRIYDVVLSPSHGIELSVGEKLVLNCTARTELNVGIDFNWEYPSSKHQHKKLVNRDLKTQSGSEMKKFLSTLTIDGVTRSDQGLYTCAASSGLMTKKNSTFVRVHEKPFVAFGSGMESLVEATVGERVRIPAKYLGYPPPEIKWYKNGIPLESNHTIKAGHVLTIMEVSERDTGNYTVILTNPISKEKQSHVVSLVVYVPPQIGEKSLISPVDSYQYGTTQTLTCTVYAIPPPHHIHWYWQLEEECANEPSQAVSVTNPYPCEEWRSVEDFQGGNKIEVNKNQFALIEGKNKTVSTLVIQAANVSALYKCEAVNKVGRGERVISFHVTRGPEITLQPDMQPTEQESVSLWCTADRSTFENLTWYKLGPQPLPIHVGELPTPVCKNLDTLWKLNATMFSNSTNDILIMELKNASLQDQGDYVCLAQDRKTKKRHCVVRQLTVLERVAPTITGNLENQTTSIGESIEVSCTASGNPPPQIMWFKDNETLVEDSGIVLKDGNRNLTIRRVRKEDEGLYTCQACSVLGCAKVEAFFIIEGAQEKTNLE
Description: (§1) The cross-reactivity of purified antibodies was tested against KDR mouse ortholog KDR mouse ortholog (mouse VEGFR2, or Flk-1) and human VEGFR1 (Flt-1). The ability of the antibodies to bind soluble KDR Ig4-7 domain and to the entire KDR extracellular domain (ECD) was also measured.
(§2) Cross-reactivity experiments were carried out and measured using an ELISA based assay as described in Example 6. […] Antibody controls included IgG1 and IgG4 (Sigma-Aldrich, Cat. #15154 and #14639, respectively).

[3] = molecular target: T1, human KDR; assay: cell-based or functional assay; remark: listed apart in the source
[4] = molecular target: T1, human KDR; assay: FACS competition on 293T/human KDR transfectants; antibody 5 ug/mL first, then competitor VEGF165 50 ng/mL; inhibition of VEGF binding
Description: (§3) Transfected cells were then seeded at 50,000 cells/well and incubated with 5 μg/mL of candidate antibody for one hour at 4° C. […] After washing, the cells were incubated with Cy5-conjugated rabbit anti-goat antibody plus 7AAD for 15 minutes at 4° C.

[5] = molecular target: T3, mouse KDR (Flk-1)/Fc (Cat. #443-KD/CF, R&D Systems, Inc.) (mouse, UniProt P35918 20-762); assay: ELISA, Flk-1 coat 5 ug/mL, antibody 0.01 ug/mL
T3 construct: Bought reagent; also called mouse VEGFR2; KDR mouse ortholog; not shown: Fc of the bought fusion protein
T3 sequence (P35918 20-762 limits assumed): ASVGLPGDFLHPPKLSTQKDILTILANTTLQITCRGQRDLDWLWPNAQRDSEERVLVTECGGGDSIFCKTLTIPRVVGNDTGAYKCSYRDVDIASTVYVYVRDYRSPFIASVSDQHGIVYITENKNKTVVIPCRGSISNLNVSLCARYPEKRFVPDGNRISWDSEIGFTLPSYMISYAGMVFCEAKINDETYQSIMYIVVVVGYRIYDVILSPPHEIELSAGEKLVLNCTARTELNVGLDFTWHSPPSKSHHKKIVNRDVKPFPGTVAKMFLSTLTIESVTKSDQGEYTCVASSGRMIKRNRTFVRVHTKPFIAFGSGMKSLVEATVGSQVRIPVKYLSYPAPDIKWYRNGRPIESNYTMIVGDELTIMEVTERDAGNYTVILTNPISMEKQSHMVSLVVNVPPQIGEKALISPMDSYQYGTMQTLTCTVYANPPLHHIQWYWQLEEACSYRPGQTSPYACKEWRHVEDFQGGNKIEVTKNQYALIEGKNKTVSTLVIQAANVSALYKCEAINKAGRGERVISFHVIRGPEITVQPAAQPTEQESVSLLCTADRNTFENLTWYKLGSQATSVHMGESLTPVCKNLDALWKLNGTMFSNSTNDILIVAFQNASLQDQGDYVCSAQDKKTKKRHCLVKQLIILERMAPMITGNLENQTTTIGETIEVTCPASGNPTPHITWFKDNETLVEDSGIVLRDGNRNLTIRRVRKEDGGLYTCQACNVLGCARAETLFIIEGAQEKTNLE
Description: as §1, §2

[6] = molecular target: T3, mouse KDR (Flk-1)/Fc (Cat. #443-KD/CF, …); assay: ELISA, Flk-1 coat 5 ug/mL, antibody 1 ug/mL
Description: as §1, §2

[7] = molecular target: T1, human KDR; assay: cell-based or functional assay; remark: listed apart in the source
[8] = molecular target: T4, cynomolgus KDR (cynomolgus monkey, UniProt A0A2K5VE63 20-1356); assay: FACS on Cyno KDR/293T transfectants, antibody 5 ug/mL
T4 construct: whole, on cells; also called Cyno KDR
T4 sequence (A0A2K5VE63 entry or part of it): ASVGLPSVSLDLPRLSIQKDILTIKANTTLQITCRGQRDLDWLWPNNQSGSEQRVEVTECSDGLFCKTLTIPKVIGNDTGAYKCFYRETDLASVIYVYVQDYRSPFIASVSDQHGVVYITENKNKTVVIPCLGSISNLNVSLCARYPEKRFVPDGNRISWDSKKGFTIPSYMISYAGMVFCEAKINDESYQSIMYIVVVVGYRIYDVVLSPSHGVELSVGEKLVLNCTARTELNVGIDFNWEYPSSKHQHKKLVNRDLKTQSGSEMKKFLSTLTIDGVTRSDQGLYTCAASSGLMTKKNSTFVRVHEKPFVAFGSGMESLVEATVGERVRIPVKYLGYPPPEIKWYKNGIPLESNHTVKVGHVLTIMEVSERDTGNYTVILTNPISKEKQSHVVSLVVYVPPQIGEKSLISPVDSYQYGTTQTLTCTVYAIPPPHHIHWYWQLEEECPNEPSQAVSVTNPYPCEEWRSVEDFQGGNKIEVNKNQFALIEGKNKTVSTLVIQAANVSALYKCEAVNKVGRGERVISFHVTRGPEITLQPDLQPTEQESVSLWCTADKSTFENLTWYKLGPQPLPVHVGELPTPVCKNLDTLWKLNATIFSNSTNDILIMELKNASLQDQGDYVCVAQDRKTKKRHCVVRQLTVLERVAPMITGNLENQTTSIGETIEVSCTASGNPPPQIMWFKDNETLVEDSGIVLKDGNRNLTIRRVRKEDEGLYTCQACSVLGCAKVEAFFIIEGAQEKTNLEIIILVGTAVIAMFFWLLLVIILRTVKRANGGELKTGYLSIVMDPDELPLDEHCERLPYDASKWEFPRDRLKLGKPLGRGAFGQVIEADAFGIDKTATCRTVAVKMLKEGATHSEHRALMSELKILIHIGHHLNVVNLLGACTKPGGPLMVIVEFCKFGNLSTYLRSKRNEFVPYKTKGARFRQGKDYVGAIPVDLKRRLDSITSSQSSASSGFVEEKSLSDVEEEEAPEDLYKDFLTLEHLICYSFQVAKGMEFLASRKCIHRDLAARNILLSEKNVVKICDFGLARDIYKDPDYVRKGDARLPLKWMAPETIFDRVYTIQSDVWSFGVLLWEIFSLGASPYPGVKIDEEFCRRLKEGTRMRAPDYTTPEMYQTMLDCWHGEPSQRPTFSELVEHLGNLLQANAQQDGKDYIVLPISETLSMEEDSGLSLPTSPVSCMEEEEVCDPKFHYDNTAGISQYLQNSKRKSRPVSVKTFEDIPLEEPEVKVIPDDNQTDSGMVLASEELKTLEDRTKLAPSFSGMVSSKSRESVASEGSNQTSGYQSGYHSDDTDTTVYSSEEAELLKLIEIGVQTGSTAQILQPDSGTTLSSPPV
Description: The binding of purified antibodies to cell-bound cynomolgus KDR (with parental cells as negative control) was tested by FACS analysis in this assay.
Cynomolgus KDR was cloned in 3 pieces. One piece was PCR amplified from cynomolgus lung cDNA, and the remaining two pieces were PCR amplified from cynomolgus kidney cDNA. The three PCR products were inserted into pCR3.1 Bid vector. […] Transfected cells were seeded at 50,000 cells/well and incubated with 5 μg/mL of candidate antibody for one hour at 4° C. The cells were then washed and incubated with secondary antibody (Cy5-conjugated goat anti-human antibody, or Cy5-conjugated rabbit anti-goat antibody, plus 7-Amino-Actinomycin (7AAD)) for 15 minutes at 4° C. Binding between cynomolgus KDR and purified antibody was detected by FACS analysis.

[9] = molecular target: T1, human KDR; assay: FACS competition on 293T/human KDR transfectants; antibody 5 ug/mL first, then competitor VEGF165 50 ng/mL; bound VEGF165 detected
Description: as §3

[10] = molecular target: T5, soluble KDR Ig4-7 domain (human, UniProt P35968 328-764); assay: ELISA, KDR Ig4-7 coat (1:1 diln.), antibody 0.01 ug/mL
T5 construct: domain: Ig4-7 domain; also called b-KDRIg4-7-myc-his; Ig4-7 domain of KDR; not shown: myc-his tag of the pSecTag construct
T5 sequence (P35968 328-764): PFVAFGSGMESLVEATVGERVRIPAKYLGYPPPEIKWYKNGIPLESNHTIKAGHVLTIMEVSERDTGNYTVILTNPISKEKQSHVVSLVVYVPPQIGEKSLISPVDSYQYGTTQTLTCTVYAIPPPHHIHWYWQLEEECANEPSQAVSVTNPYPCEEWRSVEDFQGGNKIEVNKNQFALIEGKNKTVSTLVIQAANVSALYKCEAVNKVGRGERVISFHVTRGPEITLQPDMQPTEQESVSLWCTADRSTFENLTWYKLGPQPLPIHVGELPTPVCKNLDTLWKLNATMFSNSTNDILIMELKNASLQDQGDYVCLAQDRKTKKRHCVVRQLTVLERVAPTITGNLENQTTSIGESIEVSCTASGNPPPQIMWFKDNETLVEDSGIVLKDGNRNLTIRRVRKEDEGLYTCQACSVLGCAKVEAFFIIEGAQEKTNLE
Description: as §1, §2

[11] = molecular target: T1, human KDR; assay: FACS titration of purified antibody on HUVEC cells (FACS Kd)
Description: The binding affinities of the purified antibodies for endogenously-expressed KDR in HUVEC cells was measured. HUVEC cells were seeded at 150,000 cells/well and incubated with titrations of purified antibody for 4 hours at 4° C. The cells were then washed and incubated with goat anti-human IgG-Fc-Cy5+5 μg/mL 7-Amino-Actinomycin (7AAD) for 30 minutes at 4° C. Bound KDR was detected using FACS analysis.

[12] = molecular target: T5, soluble KDR Ig4-7 domain; assay: ELISA, KDR Ig4-7 coat (1:1 diln.), antibody 0.1 ug/mL
Description: as §1, §2

[13] = molecular target: T2, whole KDR-ECD (Cat. # 676490, …); assay: ELISA, KDR-ECD coat 5 ug/mL, antibody 0.01 ug/mL
Description: as §1, §2

[14] = molecular target: T5, soluble KDR Ig4-7 domain; assay: ELISA, KDR Ig4-7 coat (1:1 diln.), antibody 1 ug/mL
Description: as §1, §2

[15] = molecular target: T2, whole KDR-ECD (Cat. # 676490, …); assay: ELISA, KDR-ECD coat 5 ug/mL, antibody 1 ug/mL
Description: as §1, §2

[16] = molecular target: T3, mouse KDR (Flk-1)/Fc (Cat. #443-KD/CF, …); assay: ELISA, Flk-1 coat 5 ug/mL, antibody 0.1 ug/mL
Description: as §1, §2

Binder | KDR tyrosine phosphorylation in HUVEC, EC50 (nM), Average [1] | KDR tyrosine phosphorylation in HUVEC, EC50 (nM), N = 1 [1] | KDR tyrosine phosphorylation in HUVEC, EC50 (nM), N = 2 [1] | KDR tyrosine phosphorylation in HUVEC, Maximum Inhibition at 100 nM (% Inhibition), Average [1] | KDR tyrosine phosphorylation in HUVEC, Maximum Inhibition at 100 nM (% Inhibition), N = 1 [1] | KDR tyrosine phosphorylation in HUVEC, Maximum Inhibition at 100 nM (% Inhibition), N = 2 [1] | ELISA reading [2] | HUVEC survival, Maximum Inhibition at 50 nM (% Inhibition), Average [3] | HUVEC survival, Maximum Inhibition at 50 nM (% Inhibition), N = 1 [3] | HUVEC survival, Maximum Inhibition at 50 nM (% Inhibition), N = 2 [3] | % Inhibition [4] | ELISA reading [5] | ELISA reading [6] | 6-keto Prostaglandin F1α release, EC50 (nM), Average [7] | 6-keto Prostaglandin F1α release, EC50 (nM), N = 1 [7] | 6-keto Prostaglandin F1α release, EC50 (nM), N = 2 [7] | 6-keto Prostaglandin F1α release, Maximum Inhibition (% Inhibition), Average [7] | 6-keto Prostaglandin F1α release, Maximum Inhibition (% Inhibition), N = 1 (200 nM) [7] | 6-keto Prostaglandin F1α release, Maximum Inhibition (% Inhibition), N = 2 (333 nM) [7] | FACS Geometric Mean Fluorescence [8] | further results
B1 | 1.9 nM | 2 nM | 1.9 nM | 75% | 74% | 77% | 0.096 | 92% | 89% | 95% | 11% | 1.17 | 3.29 | 3.2 nM | 3.2 nM | 3.2 nM | 56% | 45% | 67% | 115 | FACS Geometric Mean Fluorescence (bound VEGF165) [9]: 116; ELISA reading [10]: 0.08; Kd [11]: 1 nM; ELISA reading [12]: 0.078; ELISA reading [13]: 0.089; ELISA reading [14]: 0.082; ELISA reading [15]: 2.15; ELISA reading [16]: 2.59
B2 | 1.8 nM | 1.7 nM | 1.9 nM | 75% | 71% | 79% | 0.132 | 92% | 91% | 94% | 14% | 0.802 | 2.62 | 4.5 nM | 4.4 nM | 4.6 nM | 48% | 42% | 54% | 105 | FACS Geometric Mean Fluorescence (bound VEGF165) [9]: 112; ELISA reading [10]: 0.076; Kd [11]: 1.8 nM; ELISA reading [12]: 0.079; ELISA reading [13]: 0.09; ELISA reading [14]: 0.114; ELISA reading [15]: 1.93; ELISA reading [16]: 2
B3 | 1.1 nM | 1.2 nM | 1.1 nM | 86% | 86% | 86% | 0.178 | 57% | 55% | 59% | 40% | 0.753 | 3.12 | 3840 nM | 17 nM | 7670 nM | 53% | 31% | 76% | 108 | FACS Geometric Mean Fluorescence (bound VEGF165) [9]: 81; ELISA reading [10]: 0.609; Kd [11]: 0.2 nM; ELISA reading [12]: 2.14; ELISA reading [13]: 0.072; ELISA reading [14]: 3.04; ELISA reading [15]: 1.99; ELISA reading [16]: 2.1
